Measured values: publication PMC8187723

Molecular target: recombinant human MXRA8-Fc fusion protein (UniProt Q9BRK3)
Settings: 37 °C; n = 2; parent: est. 19; read off a plot

Substance | Kd [nM]
Ross River virus T48, CPER-recovered wild type, purified virus (E1/E2 envelope glycoproteins on the virion) E1:N141Q | 61
Ross River virus T48, CPER-recovered wild type, purified virus (E1/E2 envelope glycoproteins on the virion) E1:P226A | 20
Ross River virus T48, CPER-recovered wild type, purified virus (E1/E2 envelope glycoproteins on the virion) E1:S98A | 30
Ross River virus T48, CPER-recovered wild type, purified virus (E1/E2 envelope glycoproteins on the virion) E2:A71D | 110
Ross River virus T48, CPER-recovered wild type, purified virus (E1/E2 envelope glycoproteins on the virion) E2:H64A | 61
